We go through 2 substances from PMC11357992, “Non-invasive mapping of systemic neutrophil dynamics upon cardiovascular injury” (Nature Cardiovascular Research, 2023).

“And” between values parts separate entries of the source, which are not always exact repeats. Identical values can stand only once. Where no end group is shown, it is not given here. Side-chain parts run from the residue outwards. rhodamine‑labelled PEGylated perfluoro‑15‑crown‑5 ether nanoemulsion = not defined here; carboxyfluorescein = N-terminal fluorescence label (CF)

Data set [1] concerns CD177+ and CD177- neutrophils. As to the kind of experiment: hNPPFC uptake by CD177+ and CD177- neutrophil subpopulations, flow cytometry. The format is cell-based, human. To be noted: latter = CD177+. Here is the method: Fig. 5 Specific targeting of human neutrophils by ^hNPPFCs. a, Uptake of ^hNPPFCs (red) or ^ConPFCs (gray) by human lymphocytes, monocytes or neutrophils over time as determined by flow cytometry. **P < 0.01. b, For MRI analysis, human immune cells were incubated with ^hNPPFCs (top row) or ^ConPFCs (bottom row). After several washing steps, cells were purified by density gradient centrifugation and analyzed by MRI. First column, ^1H MR image of the centrifugation tube with the cell layer (arrow) on top of the dark Percoll layer; second column, ^19F MR image of the same area; third column, merge of both datasets. Quantification of the ^19F data is shown on the right. c, hNP was conjugated to the pH-sensitive dye pHrodo, incubated with neutrophils at 4 °C (blue) and 37 °C (red) and analyzed by flow cytometry. d, Confocal microscopy of neutrophils incubated with ^hNPPFCs (top) or ^ConPFCs (bottom). Fluorescence signals of PFCs (rhodamine; Rho) as well as ligands (carboxyfluorescein; CF) were recorded, and nuclei were counterstained with 4′,6-diamidino-2-phenylindole (DAPI) (blue). […] At distinct time points, uptake of ^hNPPFCs was determined by flow cytometry. f, Human blood immune cells were incubated with ^hNPPFCs followed by staining for CD177 and flow cytometry. […]
A general note: A flow cytometer gives signals particle by particle.

A short description of data set [2]: Cryo-transmission electron microscopy of PFCs (diameter, liposomes). It is filed as physicochemical. The arrangement: key: % of PFCs per 25 nm diameter class in cryo-TEM images. To be noted: cryo-TEM size distribution; panel C raw data, single replicates #1-#3. The procedure: PFCs were diluted with sample buffer to minimize particle aggregation and therefore enable proper size measurements, which were carried out as previously described.
Extended Data Fig. 8 Physicochemical properties and cellular uptake of ^hNPPFCs. a, Cellular uptake of ^hNPPFCs by human monocyte subsets and neutrophils: Human immune cells isolated from the blood of healthy volunteers were incubated with ^hNPPFCs. Subsequently, cells were stained with CD11b, CD14 and CD16 to differentiate between neutrophils (red), classical monocytes (gray) and non-classical monocytes (blue) and the cells were analyzed by flow cytometry. The cellular uptake of ^hNPPFCs was determined under unstimulated conditions (top) and after treatment with 1 µg/ml LPS (bottom). b, Physicochemical properties of the generated nanotracers: Characterization of size, size distribution and ζ potential of ^MalPFCs and targeting PFCs (^hNPPFCs, ^ConPFCs) by dynamic light scattering (DLS). The rhodamine fluorescence signal of the PCS was determined by IVIS imaging and the ^19F content by ^19F MRI. c-e, Cryo transmission electron microscopy of the generated nanotracers: c, Cryo transmission electron microscopy (cryo-TEM) of ^hNPPFCs and ^ConPFCs. Graphs: The diameter of the PFCs was determined manually from three images categorized into 25 nm groups. […] Data are derived from three images for ^hNPPFCs and ^ConPFCs each. d, Box plot (box and whiskers; min to max) of the diameter of ^ConPFCs/^hNPPFCs calculated from cryo-TEM images. e, Relative amount of liposomes (%) in individual cryo-TEM images. The number of PFCs and liposomes was manually determined (n = 4/5 images). Red arrows in the cryo-TEM images indicate liposomes. Data are mean values ± SD of n = 5-6 (a), n = 3-6 (b), n = 3 (c), n = 3 (d) and n = 6 (e) independent experiments; *** = p < 0.001, verified by one-way ANOVA (a). Source data

The subject of data set [3] is murine neutrophils. As to the kind of experiment: Migration of murine neutrophils into Matrigel/LPS plug after mNPPFC injection. The format is in vivo, mouse. To be noted: in the presence of the targeting PFCs. The procedure:
[…] per kg BW ^mNPPFCs or saline were injected i.v., and, after 1 h, LPS-doped Matrigel was implanted s.c. into the neck of mice. After 2 h, the Matrigel plug was excised, and infiltrated neutrophils were isolated and stained with anti-CD11b and anti-Ly6G antibodies for flow cytometry.
A total of 1 × 10^6 isolated human neutrophils were incubated with or without 50 µl ^hNPPFCs for 1 h at 37 °C in 1 ml DMEM. After washing with DMEM, 1 × 10^5 of these cells were placed in a Boyden chamber containing 200 µl DMEM. The lower part of the chamber contained 100 ng ml^−1 IL-8 in 1 ml DMEM. After 1 h in an incubator, the flow through was collected, and the number of neutrophils was counted by flow cytometry. Murine neutrophils were isolated from Matrigel–LPS plugs and stained for Ly6G. Afterward, cells were washed twice, and the number of neutrophils was determined by flow cytometry.
Extended Data Fig. 9 Impact of ^mNPPFCs on murine neutrophils. a, Differentially expressed genes (DEGs) identified by bulk RNA sequencing of murine blood neutrophils after intravenous injection of ^mNPPFCs, ^ConPFCs or NaCl (Ctrl) as control. […] In total 25655 RNA transcripts were analyzed. b, Cell surface expression of CD11b, CD62L, CD63 on blood derived murine neutrophils after intravenous application of NaCl (Ctrl) or ^mNPPFCs. […]

On to “hNPPFCs: PEGylated rhodamine-labeled perfluorocarbon nanoemulsion coupled with human neutrophil-specific peptide hNP (carboxyfluorescein-DLVTSKLQVGGGC; also: C-terminal Cys coupled via maleimide-PEG2000-DSPE to rhodamine-labelled perfluorocarbon nanoemulsion)”, for which, in data set [1], the “labeling of CD177− versus CD177+ neutrophils” value was “only the latter population could be labeled”. Further, in data set [2], the “share of particles in size class 0-25” value stood at 0; the “share of particles in size class 25-50” value is 26.2295 and 23.5714 and 28.5714; the “share of particles in size class 50-75” value is 45.9016 and 51.4286 and 42.0635; the “share of particles in size class 75-100” value was 21.3115 and 20 and 23.8095. In data set [2], the “share of particles in size class 100-125” value is 6.557 and 5 and 5.556; the “share of particles in size class 125-150” value came to 0; the “share of particles in size class 150-175” value stood at 0; the “share of particles in size class 175-200” value was found to be 0.
Regarding “mNPPFCs: PEGylated rhodamine-labeled perfluoro-15-crown-5 ether nanoemulsion (maleimide PFCs) coupled with murine neutrophil-specific peptide mNP (carboxyfluorescein-DFYKPMPNLRITGGGC([maleimide‑PEG2000‑DSPE-rhodamine‑labelled PEGylated perfluoro‑15‑crown‑5 ether nanoemulsion]); reading uncertain; also: printed as DFYKPMPNLRIT-GGG-C)”, the “migration of murine neutrophils” value in data set [3] is on record as “unaltered”.
